The supplement of paper PMC10724198
± gives the standard deviation of the averaged measurements.

How the values were obtained:
Saccharomyces cerevisiae [1] = test: protein stability index of tFT-peptide fusion (C-terminal peptide) (PSI (0-1 scale)); higher = more stable (slower turnover); conditions: genetic background: wild type; temperature: 30 C
Saccharomyces cerevisiae [2] = test: as above
Protocol: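 MPS profiling in S. cerevisiae of the tFT-X12 degron library: putative degron peptides plus stable controls, 12 aa, fused to the C-terminus of a sfGFP-mCherry timer. Cells are FACS-sorted into 8 mCherry/sfGFP bins and deep-sequenced. PSI runs from 0 (unstable) to 1 (stable). Backgrounds are wild type, das1Δ and doa10Δ at 30 °C, and wild type, das1Δ, cdc34-1 and cdc53-1 at 37 °C; 2-3 technical replicates each.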

[3] = genetic background: cdc34-1, temperature: 37 C
[4] = genetic background: cdc53-1, temperature: 37 C
[5] = genetic background: das1 deletion, temperature: 30 C
[6] = genetic background: das1 deletion, temperature: 37 C
[7] = genetic background: doa10 deletion, temperature: 30 C
[8] = genetic background: wild type, temperature: 30 C
[9] = genetic background: wild type, temperature: 37 C
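Note: PSI is a weighted mean of sequencing reads over stability bins, variants kept only with over 10 reads, mCherry proximal and sfGFP distal, peptide attached via GGGS linker.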

Sequence	protein stability index (Saccharomyces cerevisiae [1])	protein stability index (Saccharomyces cerevisiae [2]; [3])	protein stability index (Saccharomyces cerevisiae [2]; [4])	protein stability index (Saccharomyces cerevisiae [2]; [5])	protein stability index (Saccharomyces cerevisiae [2]; [6])	protein stability index (Saccharomyces cerevisiae [2]; [7])	protein stability index (Saccharomyces cerevisiae [2]; [8])	protein stability index (Saccharomyces cerevisiae [2]; [9])
NMRYRATIEACA	0.356 ± 0.0097	0.258 ± 0.043	0.319 ± 0.0071	0.222 ± 0.029	0.397 ± 0.005	0.174 ± 0.021	0.226 ± 0.029	0.38 ± 0.023
GPCRPWIVVYAG	0.475 ± 0.066	0.566 ± 0.036	0.595 ± 0.042	0.357 ± 0.034	0.5831 ± 0.0018	0.295 ± 0.022	0.333 ± 0.018	0.512 ± 0.0063
LYLEAYFCIFHF	0.36 ± 0.024	0.356 ± 0.052	0.449 ± 0.0069	0.358 ± 0.025	0.422 ± 0.013	0.334 ± 0.017	0.327 ± 0.004	0.401 ± 0.015
WCVCVSMRMIAI	0.165 ± 0.0094	0.15 ± 0.015	0.193 ± 0.008	0.201 ± 0.011	0.175 ± 0.013	0.202 ± 0.0073	0.187 ± 0.002	0.159 ± 0.013
NASWAFLCYFCV	0.481 ± 0.028	0.646 ± 0.03	0.69 ± 0.013	0.538 ± 0.018	0.68493 ± 0.0006	0.347 ± 0.018	0.374 ± 0.022	0.557 ± 0.04
VYLVVLYLRYFA	0.227 ± 0.037	0.205 ± 0.031	0.22 ± 0.011	0.192 ± 0.038	0.359 ± 0.023	0.173 ± 0.0089	0.174 ± 0.016	0.306 ± 0.023
RSIVFRVSRRLN	0.277 ± 0.034	0.65 ± 0.074	0.729 ± 0.019	0.671 ± 0.023	0.726 ± 0.015	0.13 ± 0.0084	0.161 ± 0.025	0.343 ± 0.044
PRPSPPLPPPSS	0.4726 ± 0.0028	0.665 ± 0.082	0.712 ± 0.011	0.643 ± 0.027	0.739 ± 0.019	0.673 ± 0.032	0.677 ± 0.021	0.688 ± 0.017
VFRHFYTFLALC	0.16 ± 0.0087	0.338 ± 0.043	0.414 ± 0.013	0.472 ± 0.014	0.5932 ± 0.0029	0.111 ± 0.0013	0.0988 ± 0.017	0.132 ± 0.018
GLSLLLLWFKVC	0.169 ± 0.017	0.174 ± 0.0095	0.36 ± 0.0093	0.307 ± 0.027	0.463 ± 0.014	0.0902 ± 0.0054	0.104 ± 0.025	0.0839 ± 0.013
PPRPLHPPCRPP	0.702 ± 0.013	0.64 ± 0.021	0.6975 ± 0.00072	0.66 ± 0.033	0.6943 ± 0.0015	0.659 ± 0.024	0.657 ± 0.013	0.688 ± 0.011
GAVVYGICFCTN	0.442 ± 0.061	0.624 ± 0.011	0.617 ± 0.0081	0.388 ± 0.031	0.637 ± 0.027	0.35 ± 0.0049	0.363 ± 0.035	0.621 ± 0.0069
PCNVLWYSLFLF	0.271 ± 0.0091	0.487 ± 0.015	0.597 ± 0.025	0.452 ± 0.027	0.597 ± 0.018	0.175 ± 0.018	0.19 ± 0.017	0.34 ± 0.0062
SLLFLVLFFPLV	0.432 ± 0.023	0.4885 ± 0.00069	0.524 ± 0.025	0.42 ± 0.034	0.55 ± 0.029	0.456 ± 0.019	0.43 ± 0.03	0.506 ± 0.0075
LMIVSVRLLFFL	0.2661 ± 0.002	0.229 ± 0.049	0.39 ± 0.0024	0.232 ± 0.029	0.419 ± 0.015	0.1617 ± 0.00049	0.172 ± 0.019	0.282 ± 0.014
CLLLILCFLCVR	0.359 ± 0.026	0.382 ± 0.0078	0.355 ± 0.017	0.343 ± 0.021	0.4415 ± 0.00095	0.364 ± 0.028	0.321 ± 0.02	0.401 ± 0.016
SLIDPLGNLFNS	0.752 ± 0.041	0.71 ± 0.015	0.756 ± 0.038	0.682 ± 0.039	0.756 ± 0.028	0.672 ± 0.024	0.678 ± 0.014	0.72 ± 0.018
CSFPTFRSLLLL	0.3 ± 0.078	0.532 ± 0.018	0.647 ± 0.014	0.502 ± 0.018	0.671 ± 0.014	0.218 ± 0.0036	0.23 ± 0.021	0.438 ± 0.058
RRSRLYKKAGLM	0.301 ± 0.064	0.609 ± 0.011	0.7374 ± 0.0017	0.643 ± 0.02	0.745 ± 0.011	0.179 ± 0.001	0.181 ± 0.037	0.296 ± 0.0014
LTIYPLTYCFVS	0.502 ± 0.035	0.629 ± 0.051	0.704 ± 0.046	0.562 ± 0.025	0.657 ± 0.058	0.45336 ± 0.00045	0.44 ± 0.023	0.568 ± 0.025

Sequence	protein stability index (Saccharomyces cerevisiae [1])	protein stability index (Saccharomyces cerevisiae [2]; [3])	protein stability index (Saccharomyces cerevisiae [2]; [4])	protein stability index (Saccharomyces cerevisiae [2]; [5])	protein stability index (Saccharomyces cerevisiae [2]; [6])	protein stability index (Saccharomyces cerevisiae [2]; [7])	protein stability index (Saccharomyces cerevisiae [2]; [8])	protein stability index (Saccharomyces cerevisiae [2]; [9])
LDHGRVVWVVVS	0.278 ± 0.022	0.371 ± 0.036	0.43 ± 0.021	0.3 ± 0.034	0.493 ± 0.0092	0.174 ± 0.011	0.201 ± 0.023	0.284 ± 0.008
GFCFVFVFQCFF	0.394 ± 0.049	0.339 ± 0.0077	0.451 ± 0.034	0.288 ± 0.031	0.431 ± 0.0031	0.267 ± 0.0043	0.276 ± 0.039	0.402 ± 0.014
WAFVVCGAVFFW	0.358 ± 0.019	0.264 ± 0.025	0.358 ± 0.031	0.299 ± 0.014	0.466 ± 0.005	0.289 ± 0.024	0.282 ± 0.036	0.412 ± 0.022
RGDCFLVLCVWR	0.485 ± 0.0086	0.499 ± 0.022	0.535 ± 0.015	0.366 ± 0.032	0.563 ± 0.017	0.348 ± 0.0047	0.362 ± 0.026	0.541 ± 0.0062
FLAFSYIRLLFF	0.237 ± 0.012	0.468 ± 0.05	0.463 ± 0.019	0.454 ± 0.026	0.6128 ± 0.0054	0.135 ± 0.017	0.122 ± 0.023	0.178 ± 0.031
FVVFLLFFMLYH	0.379 ± 0.043	0.312 ± 0.052	0.428 ± 0.019	0.317 ± 0.048	0.4366 ± 0.0024	0.311 ± 0.004	0.305 ± 0.025	0.411 ± 0.0096
IREYSIRIKRLQ	0.33 ± 0.036	0.623 ± 0.062	0.722 ± 0.052	0.64 ± 0.041	0.719 ± 0.022	0.138 ± 0.016	0.146 ± 0.04	0.318 ± 0.058
ESVPLLIVLHLV	0.0881 ± 0.034	0.304 ± 0.058	0.62 ± 0.085	0.415 ± 0.032	0.5979 ± 0.0039	0.0857 ± 0.02	0.0885 ± 0.0083	0.07176 ± 0.00058
PLYFSVFSLLFL	0.473 ± 0.012	0.522 ± 0.03	0.556 ± 0.048	0.489 ± 0.015	0.631 ± 0.025	0.478 ± 0.026	0.41 ± 0.021	0.539 ± 0.013
VCFWCLYVMFSL	0.418 ± 0.018	0.46 ± 0.043	0.494 ± 0.01	0.383 ± 0.019	0.463 ± 0.0068	0.372 ± 0.0057	0.363 ± 0.021	0.471 ± 0.022
VCLFSVCLWFVS	0.21 ± 0.044	0.0838 ± 0.025	0.219 ± 0.062	0.16 ± 0.026	0.313 ± 0.011	0.124 ± 0.0088	0.141 ± 0.015	0.227 ± 0.013
FFGVLFRVSLFF	0.266 ± 0.035	0.12 ± 0.035	0.22 ± 0.011	0.191 ± 0.022	0.3075 ± 0.0027	0.175 ± 0.0079	0.173 ± 0.017	0.262 ± 0.0057
ISATYSYIPVVG	0.455 ± 0.038	0.502 ± 0.0071	0.496 ± 0.011	0.346 ± 0.024	0.541 ± 0.012	0.32388 ± 3.1e-05	0.378 ± 0.023	0.507 ± 0.0073
LSRLWVVGWVVA	0.295 ± 0.036	0.453 ± 0.019	0.472 ± 0.028	0.345 ± 0.032	0.529 ± 0.0071	0.191 ± 0.0034	0.234 ± 0.025	0.399 ± 0.013
RTKIKKKIMKNI	0.515 ± 0.062	0.621 ± 0.051	0.718 ± 0.032	0.667 ± 0.023	0.716 ± 0.029	0.473 ± 0.052	0.532 ± 0.016	0.651 ± 0.037
FLFFMGVGVVLY	0.295 ± 0.013	0.285 ± 0.032	0.382 ± 0.029	0.314 ± 0.025	0.452 ± 0.023	0.35 ± 0.039	0.325 ± 0.025	0.425 ± 0.0071
GTHWARLGWLLA	0.227 ± 0.11	0.607 ± 0.03	0.711 ± 0.036	0.619 ± 0.019	0.724 ± 0.022	0.161 ± 0.0026	0.176 ± 0.023	0.379 ± 0.033
SDAIKITFIIHN	0.473 ± 0.062	0.687 ± 0.043	0.632 ± 0.024	0.59 ± 0.012	0.667 ± 0.016	0.425 ± 0.01	0.46 ± 0.009	0.586 ± 0.0065
FPLPPPGSPPPL	0.0293 ± 0.02	0.68 ± 0.035	0.7381 ± 0.0033	0.6712 ± 0.0062	0.735 ± 0.0085	0.682 ± 0.0071	0.677 ± 0.011	0.707 ± 0.014
